Reference: the DeepSol protein solubility set

Test: soluble on expression in E. coli; label from the status in PepcDB or PDB records

| Sequence | soluble on expression in E. coli |
| --- | --- |
| MREETKCALIIDESLPLGLIANTAAILGAALGKNKPDLIGETVTDGSGIDHLGIVKIPIPILKGNAELLHQLSQKLLTDEFNDILTVDFTDVAQSIHTYEAYIEAFQSTAASDYRYFGIGICGDKKKVARLTGSLGLLRLEHHHHHH | soluble |
| GPSDMYVHVGNLIYRNLHLFNSEMHESILVSYSSDLIIYRTNTVGDDYIPSCDCTQATYYCKHKNRYFPITVTSHDWYEIQESEYYPKHIQYNLLIGEGPCEPGDCGGKLLCKHGVIGIVTAGGDNHVAFIDLRHFHCAEEQ | soluble |
| MGSDKIHHHHHHMKDILVIGATGKQGNAVVKQLLEDGWYVSALTRNKNNRKLSDIGHPHLSIVEGDLSDNVSLQSAMKGKYGLYSIQPIVKDDVSEELRQGMKIIEIAEQENIQHIVYSTAGGVNRNRTGPHFEVLAKIENRLMESNINATVIKPSFFMDNFLRIAKVEDERITLPEFINPNIKFTMISSIDIAKIASYIFAHPQSFTHQSIEIGSDEVTLSEAATIFSEVTGKSTVIEGEFVSGVAEKQWLEEKGYEVDFELMAEINPTRLSLSDWLKVQNYNK | not soluble |
| MSLNSSQIQSVNVELFNVPLDEVLNDAKHGDHTHFELILCTITCTDGTQGVGYTYTGGKGGRAIYSLLNDELKPFLMGKDASCINHLWEEMQYHLHYVGRGGLVSFAISAVDIALWDIHCKVLNQPLWKVAGGCSDRVNCYAGGIDLNFSTEKLLGNIQGYLDCGFEAVKIKVGKEDYREDVARVAAVRNLIGPDAIFMVDANYSLTVNKAIKFAQAIEQYDITWFEEPTIPDDFAGFAHIASKINIPLAMGENLHTIYEFNQAISQAKLGFLQPDASNIGGITGWLTVAQMGYANNLPICSHGMHELHVSLMASQPNAGYLEVHSFPIDRYTTHPLKLENGKAVAPSTPGVGVEFKTELLLPYLVKHSEGHHHHHH | soluble |
| MGSDKIHHHHHHMNSTTKSKEFEQHYSGTLSDYVTAIAWSPQGKTLAATSAAGEVVLWNDGELTTLQTGNGKSVDCLAFSPDGKFLAVGGQDGQVKIWQNTELIATLENAPAWVDKLAWNYTSNQLAFSLGRYVQVWDVDTHEIVVTLNFDNSSVLGIDWRIDGQYLAISGYKGVKIWHSQNWDEEPYSLDMTTVSLAMAWSPDGKFLASGNMDRSVTVLEWNNPDPWVMRGFPGKIRQLAWSEAMTKVGAPILASSSVEGIVVWEKLEDDTLGWEARVLTNHVGTINAIAFAPKSFLLASAAADGWLCLWNQAKEVSQIITGVSGGFSTLAWHPQGKLLAAGGEQGELVIWSKVLRGQGFGRS | not soluble |
| MSLTNHEQVLTDYLAAFIEELVQAGVKEAIISPGSRSTPLALMMAEHPILKIYVDVDERSAGFFALGLAKASKRPVVLLCTSGTAAANYFPAVAEANLSQIPLIVLTADRPHELRNVGAPQAMDQLHLYGSHVKDFTDMALPENSEEMLRYAKWHGSRAVDIAMKTPRGPVHLNFPLREPLVPILEPSPFTATGKKHHHVHIYYTHEVLDDSSIQKMVTECTGKKGVFVVGPIDKKELEQPMVDLAKKLGWPILADPLSGLRSYGALDEVVIDQYDAFLKEAEIIDKLTPEVVIRFGSMPVSKPLKNWLEQLSDIRFYVVDPGAAWKDPIKAVTDMIHCDERFLLDIMQQNMPDDAKDAAWLNGWTSYNKVAREIVLAEMANTTILEEGKIVAELRRLLPDKAGLFIGNSMPIRDVDTYFSQIDKKIKMLANRGANGIDGVVSSALGASVVFQPMFLLIGDLSFYHDMNGLLMAKKYKMNLTIVIVNNDGGGIFSFLPQANEPKYFESLFGTSTELDFRFAAAFYDADYHEAKSVDELEEAIDKASYHKGLDIIEVKTNRHENKANHQALWVKIADALKALDEGHHHHHH | soluble |
| SSRERIKRELPPVQEHIDKLRKVIEEGNYYGALQMYKSISARYVTAQRFSEALDILFSGACIELEHGLVNCGADLAILFVDTLVKATSPCNDETLDRIRCIFKLFPRVPVPPHLVDVSDDEDVQNLQESLGEARSRVENLTSFLRAAIKWSAEFGGPRTGYPELHAMLGDYLYTECPELDMVRISRHFVRAEDPEKFASMLVNFMGRCYPGEDDLAIARAVLMYLSMGNMKDANFMMDEIKKQAETKNPELSESDLIQFISYLLETLQRDALPLFNMLRVKYKSSIDRDQLLNELLDEIAERFYGVQRKNPLQGMFGDIFKMMG | soluble |
| MFDAKKLEQIAKQIHEAMPQPVKELGADVEQKVRQVIQGQLNKLDVVSREEFDVQTQVLLRTRQKLTELEQKMAELEAKLADK | not soluble |
| MSLDSSISDEDTVTVRTAKQVALVVEGQIQNVTTTAVSVEDLLQEVGGITGADAVDADLSETIPESGLEHHHHHH | not soluble |
| MSLDDRRLIAEVEARRADLVALTQDLVRIPTLNPPGRNYRALCDMLAARLAPQFEVELVRAHGAPGDSETYPRWNLIARRQGARDGDCVHFNSHHDVVEVGHGWTRDPFGAEVEGDRLYGRGACDMKGGLAASVIAAEAFLAVCPDFAGSIEISATADEESGGFGGVAYLARQGRFAHVQHVLIPEPLHKDRICLGHRGVWWAEVETQGRIAHGSMPFLGDSAIRHMGALLAEIEERLYPLLATRTTAMPVTPEGARQSTLNINSIHGGEPEPEPGYTGLPAPCVADRCRIVIDRRFLIEEDLDEVKAELRALAERLAEARPGFAFEIRDLFEVRPTLTDRDAPVVRSTAAAIERVLARQAEYVVSPGTYDQKHIDRIGKLKNCIAYGPGLLHLAHQPDEWVGIADMVDSAKVMALVLADLLAPEEGHHHHHH | soluble |
| MGSDKIHHHHHHMRIQVASDLHHELAVSNSAMAARLEHADDAVDVLVLAGDIHNQTGAIDLYADYPVPVVYVCGNHEFYGTEMLQLLPELRRRAVGTSVKLLEKDELILNNVRFLGCTMWTDYHAFPLCLNTAMEYARNHMLDHQRIRESNNGRFEPEDAAEEQRAALEFLVRKIREPFPGKTVVITHHAPSARSIHQHEQNNPLVPAFASNLEFLASEADLWIHGHIHLSSDYRLGNCRVICNPRGYPGRRNRSNPALAYENAQFDARKVIDV | not soluble |
| MSLMPDKKGYIIDIDGVIGKSVTPIPEGVEGVKKLKELGKKIIFVSNNSTRSRRILLERLRSFGLEVGEDEILVATYATARFIAREKPNAKVFTTGEEGLIEELRLAGLEIVDYDEAEYLVVGSNRKINFELMTKALRACLRGIRYIATNPDRIFPAEDGPIPGTGMIIGALYWMTGREPDVVVGKPSEVIMREALDILGLDAKDVAVVGDQIDVDVAAGKAIGAETVLVLTGVTTRENLDQMIERHGLKPDYVFNSLKDMVEALEGEGHHHHHH | soluble |
| MGSDKIHHHHHHMAKAKTQFVCSNCGYSTPRYLGRCPNCGEWNTLTEEHFDTKPDRKSRVSFAGKSAKPQRLKEVSLTKTPRVKTKLKEFNRVLGGGVVPGSLVLIGGDPGIGKSTLLLQVSGQLAETGGSVLYVTGEESASQVKMRADRLAVSSEDFYLYPETDMSNIRSTIESTHPEFVVIDSVQTMQEPDMDSAIGSVSQIREITAELLQIAKTNGITIFIVGHVTKGGAIAGPKILEHMVDTVLYFEGDLHHTYRILRAVKNRFGSTNELGIFEMRTGGLYEVANPSEIFLEERLKDATGSAIVVSMEGTRPILVEVQALVTPTVFGNAKRTASGLDHNRVSLIMAVLEKRASLMLQNQDAYLKAAGGVKLDEPAIDLAIAVSVASSYRDQQTRPSDCFVGEVGLTGEIRRVNRIESRVGEAAKLGFKRIFIPKNNLQGWDIPTGIEVIGVATLKEALQLALQQPNY | not soluble |
| MGSDKIHHHHHHMDTAKTKPFDEMFLQDEVIRPIYAEYAAWLQDVPHQQLESKRQEAELLFRRVGITFNVYGEDAGAERLIPFDVVPRILSASEWARLSDGAIQRVKALNMFLHDVYHDQEIIKAGIVPSSILANAQYRPEMFGVDVPGGVYAHIAGVDLVRTGENDFYVLEDNLRTPSGVSYMLENRKMMMRLFPELFRRYPVAPVEHYPQVLLNNLRAVAQAGVHEPTVVLLTPGAYNSAYFEHAFIAQQMGIELVEGQDLFVRNNAVYMRTTEGPKRVDVIYRRIDDDFIDPLSFRPDSMLGVPGLLSVYRNGGVTLANAVGTGVADDKDTYIYVPEMIRFYLGEEPILSNVPTYQLSKADDLKYVLDNLAELVVKEVQGSGGYGMLVGPAASKQELEDFRQRILANPANYIAQPTLALSTCPTLVETGIAPRHVDLRPFVLSGKTVSLVPGALCRVALREGSLVVNSSQGGGTKDTWILKD | not soluble |
| MGKGGNYVTVAASEVDELRRKNGEMEKAVEEMKKEMLQLWRRTQVAEEAEERLCSQLAELEAESLDQARDYHSRIIFLMNELSRLSSDSASASP | soluble |
| MGSDKIHHHHHHMEHIFQAHSPGEAGEILQQNWEHWLMTTARWREILTYDPRPATGCSPKEILWTKNKAQLYHYQCSSERRYRTPVLMIYALINRPYVLDLTPGSSLVEYLVNEGFDVYLLDWGEFEWEDRDITYADLVYDYIATAARKVARSAGSKEISIIGYCMGGTMSTLYAALFDRPVLKNLVYLAAPIDFNRAGTYDVWLKAPGYDPDRIADTMELVPKSFIDWGTRMLNPLANYWGTYTRLWKTLEEGKSVHFWKVLNKWSSDNINFPGGAYRDWIRDFYQGNKLIKNQVVLRGKRVQLQRIKANILAMVGLRDHIVMPHQTAAALTYLGGNDKTYMEFPVGHGGLVLGETARMRVFPEIAYWLGERSEELSEE | not soluble |
| MDSRPGLRTTSPSSGTRTGRSNTRTLPPDPLLECAGRTRWPFGIREPDEDYPVTIIETEGFLNLVSVSAVALNQPFSLFFGAGVVLIPVRFECMRTPPVPAGRGGRVIRIVKFGIVRHLFSLLAQQVPVVQADGWIVNQNDQKKQNPPKRVKCGCVEDA | not soluble |
| MSLKPLSSPLQQYWQTVVERLPEPLAEESLSAQAKSVLTFSDFVQDSVIAHPEWLTELESQPPQADEWQHYAAWLQEALCNVSDEAGLMRELRLFRRRIMVRIAWAQTLALVTEESILQQLSYLAETLIVAARDWLYDACCREWGTPCNAQGEAQPLLILGMGKLGGGELNFSSDIDLIFAWPEHGCTQGGRRELDNAQFFTRMGQRLIKVLDQPTQDGFVYRVDMRLRPFGESGPLVLSFAALEDYYQEQGRDWERYAMVKARIMGDSEGVYANELRAMLRPFVFRRYIDFSVIQSLRNMKGMIAREVRRRGLTDNIKLGAGGIREIEFIVQVFQLIRGGREPSLQSRSLLPTLSAIAELHLLSENDAEQLRVAYLFLRRLENLLQSINDEQTQTLPSDELNRARLAWAMDFADWPQLTGALTAHMTNVRRVFNELIGDDESETQEESLSEQWRELWQDALQEDDTTPVLAHLSEDDRKQVLTLIADFRKELDKRTIGPRGRQVLDHLMPHLLSDVCAREDAAVLSRITALLVGIVTRTTYLELLSEFPAALKHLISLCAASPMIASQLARYPLLLDELLDPNTLYQPTATDAYRDELRQYLLRVPEDDEEQQLEALRQFKQAPVLRIAAADIAGTLPVMKVSDHLTWLAEAMIDAVVQQAWVQMVARYGKPNHLNEREGRGFAVVGYGKLGGWELGYSSDLDLIFLHDCPMDAMTDGEREIDGRQFYLRLAQRIMHLFSTRTSSGILYEVDARLRPSGAAGMLVTSAEAFADYQKNEAWTWEHQALVRARVVYGDPQLTAHFDAVRREIMTLPREGKTLQTEVREMREKMRAHLGNKHRDRFDIKADEGGITDIEFITQYLVLRYAHEKPKLTRWSDNVRILELLAQNDIMEEQEAMALTRAYTTLRDELHHLALQELPGHVSEDCFTAERELVRASWQKWLVEEEGHHHHHH | soluble |
| MGSDKIHHHHHHMNNKDLWIKEEIIWSEHKCIRFAAGGYEALIIPDVGGNVVELKDTNKGVTILRTPKKDLKFEDFKNRPQVYGLPVLFPPNRIDDGTFKLGDKTYKFPINEAKNNNYIHGFIKNSKWTVHKKKIDQDKALVEVVFDFTKENEAYKYFSHEFQFKLSYELSSKGLKQTTSVVNLSSEEMPLSVGYHSAFNVPFIEGSEDSNCRVKISIDKFWKQDSRNLPTGESFAPTGEQKEYLENGVAVASHPIESLFSLKDIDVNGKTFRGACIEDASKNTRVVYEMSSEYKYLVIWNDMGDKKYACIEPQTSIINSPNVKLDRSVSGFKTLKPNESWSGVCKLYIENM | not soluble |
